Laboratory results from article PMC10592472 (Cell reports, 2023).
Where two headings read alike, the source gives them in different places.

Key:
[1] = biological target: LFA1 (αLβ2) (mouse (endogenous in primary T cells)) (UniProt P24063); test: single-molecule imaging
[2] = biological target: LFA1 (αLβ2) (mouse (endogenous in primary T cells)) (UniProt P24063); test: single-molecule imaging; remark: listed apart in the source
LFA1 (αLβ2) = LFA1 (αLβ2) (mouse (endogenous in primary T cells), UniProt P24063 24-1162; P11835 24-771); test: flow cytometry on cells
Sequence of LFA1 (αLβ2) (P24063 24-1162, chain 1 of 2): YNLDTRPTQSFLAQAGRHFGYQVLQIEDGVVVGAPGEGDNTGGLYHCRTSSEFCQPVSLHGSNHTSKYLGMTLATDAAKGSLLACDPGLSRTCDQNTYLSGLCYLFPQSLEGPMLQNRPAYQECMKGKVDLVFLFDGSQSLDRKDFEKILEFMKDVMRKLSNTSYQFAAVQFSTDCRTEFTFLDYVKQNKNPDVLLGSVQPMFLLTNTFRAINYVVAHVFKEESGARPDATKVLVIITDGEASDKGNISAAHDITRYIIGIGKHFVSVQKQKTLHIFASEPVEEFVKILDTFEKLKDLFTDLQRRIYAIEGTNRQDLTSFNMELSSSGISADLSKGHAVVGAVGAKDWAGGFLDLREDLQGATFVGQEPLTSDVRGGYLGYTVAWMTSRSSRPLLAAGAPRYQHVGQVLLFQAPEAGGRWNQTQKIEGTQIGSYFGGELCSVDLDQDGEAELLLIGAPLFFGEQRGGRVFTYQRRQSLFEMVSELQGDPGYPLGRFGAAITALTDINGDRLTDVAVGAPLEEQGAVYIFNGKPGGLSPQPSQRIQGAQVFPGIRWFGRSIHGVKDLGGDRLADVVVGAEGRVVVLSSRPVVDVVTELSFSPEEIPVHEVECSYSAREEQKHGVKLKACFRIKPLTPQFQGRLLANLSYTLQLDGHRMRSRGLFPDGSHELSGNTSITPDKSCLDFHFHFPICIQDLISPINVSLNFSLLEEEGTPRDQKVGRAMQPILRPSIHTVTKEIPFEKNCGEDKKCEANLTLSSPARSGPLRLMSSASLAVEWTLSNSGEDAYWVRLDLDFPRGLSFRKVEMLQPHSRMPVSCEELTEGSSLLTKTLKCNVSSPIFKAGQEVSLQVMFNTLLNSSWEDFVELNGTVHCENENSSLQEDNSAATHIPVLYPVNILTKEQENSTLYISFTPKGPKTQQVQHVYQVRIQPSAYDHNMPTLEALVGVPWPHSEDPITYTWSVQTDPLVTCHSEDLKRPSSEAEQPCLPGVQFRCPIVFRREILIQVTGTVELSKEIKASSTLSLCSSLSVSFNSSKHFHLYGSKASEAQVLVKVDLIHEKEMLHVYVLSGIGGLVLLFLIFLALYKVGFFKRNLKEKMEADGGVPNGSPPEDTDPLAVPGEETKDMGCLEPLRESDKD
Sequence of LFA1 (αLβ2) (P11835 24-771, chain 2 of 2): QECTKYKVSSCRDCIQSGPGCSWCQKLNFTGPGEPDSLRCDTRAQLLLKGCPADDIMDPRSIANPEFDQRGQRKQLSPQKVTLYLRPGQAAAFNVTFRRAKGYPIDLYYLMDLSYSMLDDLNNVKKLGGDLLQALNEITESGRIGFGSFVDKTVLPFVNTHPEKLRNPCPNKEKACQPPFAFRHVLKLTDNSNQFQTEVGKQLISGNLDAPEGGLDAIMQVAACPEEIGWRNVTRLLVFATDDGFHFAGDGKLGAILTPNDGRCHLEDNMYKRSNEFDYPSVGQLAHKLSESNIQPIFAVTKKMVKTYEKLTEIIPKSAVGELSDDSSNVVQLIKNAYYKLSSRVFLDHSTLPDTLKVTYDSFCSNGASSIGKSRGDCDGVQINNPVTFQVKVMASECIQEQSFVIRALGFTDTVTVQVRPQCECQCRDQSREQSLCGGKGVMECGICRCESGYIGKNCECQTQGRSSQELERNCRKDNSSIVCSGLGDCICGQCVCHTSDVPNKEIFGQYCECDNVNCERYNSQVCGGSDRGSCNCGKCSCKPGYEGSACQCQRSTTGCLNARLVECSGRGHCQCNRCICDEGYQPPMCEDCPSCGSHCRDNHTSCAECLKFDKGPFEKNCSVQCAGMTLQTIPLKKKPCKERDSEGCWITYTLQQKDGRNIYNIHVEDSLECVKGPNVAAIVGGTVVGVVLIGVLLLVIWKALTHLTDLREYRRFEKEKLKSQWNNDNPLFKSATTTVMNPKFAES

Sequence of LFA1 (αLβ2) (mouse (endogenous in primary T cells)) (P24063 24-1162, chain 1 of 2): as the sequence (P24063 24-1162, chain 1 of 2) above
Sequence of LFA1 (αLβ2) (mouse (endogenous in primary T cells)) (P11835 24-771, chain 2 of 2, further chain): as the sequence (P11835 24-771, chain 2 of 2) above

Row | koff [1] | koff [2] | fold binding against WT T cells (Rasa3/Sipa1-KO T cells, Mn2+) (LFA1 (αLβ2)) | Molecule
1 | 0.03 s⁻¹ | 0.398 s⁻¹ | – | mouse ICAM1-GPI (from UniProt P13597 28-537) (ligand)
2 | – | – | 2 fold | Mouse ICAM1-Fc (Fc fusion, UniProt P13597 28-485, looked up) QVSIHPREAFLPQGGSVQVNCSSSCKEDLSLGLETQWLKDELESGPNWKLFELSEIGEDSSPLCFENCGTVQSSASATITVYSFPESVELRPLPAWQQVGKDLTLRCHVDGGAPRTQLSAVLLRGEEILSRQPVGGHPKDPKEITFTVLASRGDHGANFSCRTELDLRPQGLALFSNVSEARSLRTFDLPATIPKLDTPDLLEVGTQQKLFCSLEGLFPASEARIYLELGGQMPTQESTNSSDSVSATALVEVTEEFDRTLPLRCVLELADQILETQRTLTVYNFSAPVLTLSQLEVSEGSQVTVKCEAHSGSKVVLLSGVEPRPPTPQVQFTLNASSEDHKRSFFCSAALEVAGKFLFKNQTLELHVLYGPRLDETDCLGNWTWQEGSQQTLKCQAWGNPSPKMTCRRKADGALLPIGVVKSVKQEMNGTYVCHAFSSHGNVTRNVYLTVLYHSQNN
